Experimental data from patent US6407062 (ST JUDE CHILDREN S RESEARCH HOSPITAL, dated 2000).

How the values were obtained:
[1] = target: T1, Hdm2 140-350 (polyhistidine-tagged, bacterial) (human, UniProt Q00987 140-350); assay: immunoprecipitation and blot with bacterial Hdm2 140-350
T1 construct: The sense primer places an ATG before residue 141, so position 140 of the construct may be Met; also called Hdm2 140-350 polypeptide; not shown: N-terminal polyhistidine tag of pET28a

[2] = target: cyclin D2 (mouse, endogenous) (mouse, UniProt P30280 1-289); assay: immunoprecipitates from cell lysates blotted with anti-ARF-p19; Sf9 baculovirus reconstruction also gave no convincing evidence
Sequence of cyclin D2 (mouse, endogenous) (P30280 whole entry): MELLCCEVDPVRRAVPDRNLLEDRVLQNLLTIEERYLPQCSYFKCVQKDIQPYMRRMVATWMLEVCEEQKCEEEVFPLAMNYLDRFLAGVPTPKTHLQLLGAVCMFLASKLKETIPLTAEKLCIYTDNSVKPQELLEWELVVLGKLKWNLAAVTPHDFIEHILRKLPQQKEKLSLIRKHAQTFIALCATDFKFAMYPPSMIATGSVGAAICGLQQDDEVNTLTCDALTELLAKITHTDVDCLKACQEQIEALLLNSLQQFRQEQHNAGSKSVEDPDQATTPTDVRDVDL

[3] = target: cyclin A (mouse, endogenous) (mouse, UniProt P51943 1-422, limits assumed); assay: as above
Sequence of cyclin A (mouse, endogenous) (P51943 whole entry): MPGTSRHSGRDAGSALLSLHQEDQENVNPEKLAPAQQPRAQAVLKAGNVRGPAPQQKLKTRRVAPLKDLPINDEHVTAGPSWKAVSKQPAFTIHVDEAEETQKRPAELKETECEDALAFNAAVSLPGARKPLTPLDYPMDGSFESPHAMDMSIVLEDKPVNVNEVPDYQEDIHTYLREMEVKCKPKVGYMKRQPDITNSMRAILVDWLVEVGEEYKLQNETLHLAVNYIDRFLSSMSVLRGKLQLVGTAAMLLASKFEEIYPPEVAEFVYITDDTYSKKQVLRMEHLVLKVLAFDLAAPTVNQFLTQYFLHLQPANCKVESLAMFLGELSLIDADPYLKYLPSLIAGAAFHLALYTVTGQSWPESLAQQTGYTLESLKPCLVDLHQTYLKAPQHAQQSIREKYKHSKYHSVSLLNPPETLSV

CDK6 (mouse, endogenous) = CDK6 (mouse, endogenous) (mouse, UniProt Q64261 1-326); assay: as above
Sequence of CDK6 (mouse, endogenous) (Q64261 whole entry): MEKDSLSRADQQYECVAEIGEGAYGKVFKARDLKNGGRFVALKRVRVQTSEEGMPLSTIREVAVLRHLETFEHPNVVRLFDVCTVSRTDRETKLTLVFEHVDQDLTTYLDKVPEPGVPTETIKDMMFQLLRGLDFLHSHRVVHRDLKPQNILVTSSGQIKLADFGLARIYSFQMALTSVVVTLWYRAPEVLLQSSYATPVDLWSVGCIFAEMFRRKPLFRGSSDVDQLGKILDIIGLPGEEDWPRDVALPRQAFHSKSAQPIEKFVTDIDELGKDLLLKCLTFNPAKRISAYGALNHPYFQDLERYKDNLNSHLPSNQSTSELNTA

[4] = target: cyclin D1 (mouse, endogenous) (mouse, UniProt P25322 1-295); assay: as above
Sequence of cyclin D1 (mouse, endogenous) (P25322 whole entry): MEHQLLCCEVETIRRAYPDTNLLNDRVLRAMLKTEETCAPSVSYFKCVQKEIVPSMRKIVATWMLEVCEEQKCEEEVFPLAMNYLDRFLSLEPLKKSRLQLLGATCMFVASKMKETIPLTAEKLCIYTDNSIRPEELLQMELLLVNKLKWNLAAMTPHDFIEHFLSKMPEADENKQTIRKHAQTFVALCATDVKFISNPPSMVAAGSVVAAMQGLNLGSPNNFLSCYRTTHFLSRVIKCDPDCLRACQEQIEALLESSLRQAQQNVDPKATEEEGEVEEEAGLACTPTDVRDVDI

CDK4 (mouse, endogenous) [5] = target: T2, CDK4 (mouse, endogenous) (mouse, UniProt P30285 2-303); assay: as above
T2 sequence (looked up): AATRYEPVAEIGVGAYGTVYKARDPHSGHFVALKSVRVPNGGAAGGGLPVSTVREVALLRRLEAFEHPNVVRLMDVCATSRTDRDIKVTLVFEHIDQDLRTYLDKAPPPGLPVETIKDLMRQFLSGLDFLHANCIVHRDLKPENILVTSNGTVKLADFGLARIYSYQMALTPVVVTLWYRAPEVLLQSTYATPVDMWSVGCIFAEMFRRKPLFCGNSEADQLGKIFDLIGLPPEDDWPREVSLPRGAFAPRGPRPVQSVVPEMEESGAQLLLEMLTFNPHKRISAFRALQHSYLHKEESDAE

CDC2 (mouse, endogenous) = target: T3, CDC2 (mouse, endogenous) (mouse, UniProt P11440 1-297); assay: as above
T3 construct: also called CDK1
T3 sequence (P11440 whole entry): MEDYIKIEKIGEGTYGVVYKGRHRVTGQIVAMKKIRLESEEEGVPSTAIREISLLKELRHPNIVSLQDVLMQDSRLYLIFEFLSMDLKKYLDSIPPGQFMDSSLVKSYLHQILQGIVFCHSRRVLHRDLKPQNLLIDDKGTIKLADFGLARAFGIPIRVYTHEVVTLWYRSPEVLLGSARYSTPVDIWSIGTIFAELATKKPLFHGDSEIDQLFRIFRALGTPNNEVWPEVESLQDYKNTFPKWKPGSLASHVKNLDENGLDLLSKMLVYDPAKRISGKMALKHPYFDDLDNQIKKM

[6] = target: endogenous wild-type p53 of mouse fibroblasts (NIH-3T3 cells, MEFs) (mouse, UniProt P02340 1-390); assay: sequential immunoprecipitation from NIH-3T3 cells; EMSA
Sequence of endogenous wild-type p53 of mouse fibroblasts (NIH-3T3 cells, MEFs) (P02340 whole entry): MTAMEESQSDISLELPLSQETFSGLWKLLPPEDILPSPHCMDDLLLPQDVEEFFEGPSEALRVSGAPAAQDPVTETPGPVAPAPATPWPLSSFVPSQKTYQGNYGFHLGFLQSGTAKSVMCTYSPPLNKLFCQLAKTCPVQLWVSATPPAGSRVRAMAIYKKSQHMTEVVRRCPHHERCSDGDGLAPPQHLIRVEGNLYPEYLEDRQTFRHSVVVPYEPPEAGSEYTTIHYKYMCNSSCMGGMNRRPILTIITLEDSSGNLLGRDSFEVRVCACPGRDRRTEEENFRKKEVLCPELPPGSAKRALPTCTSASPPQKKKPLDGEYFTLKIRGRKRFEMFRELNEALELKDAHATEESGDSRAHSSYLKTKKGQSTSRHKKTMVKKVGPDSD

CDK4 (mouse, endogenous) [7] = target: T2, CDK4 (mouse, endogenous); assay: p16 immunoprecipitates blotted with antiserum to CDK4
[8] = target: T4, Hdm2 (Human Double Minute 2, full-length, untagged) (human, UniProt Q00987 1-491); assay: binding assay not described further
T4 construct: GenBank M92424 printed; also called wild type Hdm2
T4 sequence (Q00987 whole entry): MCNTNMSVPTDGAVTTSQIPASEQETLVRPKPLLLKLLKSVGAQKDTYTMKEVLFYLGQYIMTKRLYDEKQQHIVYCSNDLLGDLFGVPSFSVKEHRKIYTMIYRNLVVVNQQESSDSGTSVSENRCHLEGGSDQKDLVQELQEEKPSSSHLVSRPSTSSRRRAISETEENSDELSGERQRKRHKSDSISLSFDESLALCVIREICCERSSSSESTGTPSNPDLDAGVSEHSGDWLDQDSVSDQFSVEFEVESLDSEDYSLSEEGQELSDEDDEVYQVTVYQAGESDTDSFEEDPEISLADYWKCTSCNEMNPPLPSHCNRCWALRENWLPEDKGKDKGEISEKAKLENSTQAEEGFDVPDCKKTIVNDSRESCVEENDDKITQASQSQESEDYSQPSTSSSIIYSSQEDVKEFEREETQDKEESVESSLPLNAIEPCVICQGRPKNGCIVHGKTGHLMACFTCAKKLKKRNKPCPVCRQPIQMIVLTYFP

[9] = target: T5, Hdm2 210-304 (polyhistidine-tagged, bacterial) (human, UniProt Q00987 210-304); assay: FPLC affinity chromatography on peptide coupled to Sepharose
T5 construct: The sense primer places an ATG before residue 211; not shown: N-terminal polyhistidine tag of pET28a
T5 sequence (Q00987 210-304): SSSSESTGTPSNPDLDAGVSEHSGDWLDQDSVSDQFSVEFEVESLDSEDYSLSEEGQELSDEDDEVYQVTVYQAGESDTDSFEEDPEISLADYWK

[10] = target: T1, Hdm2 140-350 (polyhistidine-tagged, …); assay: as above
[11] = target: T5, Hdm2 210-304 (polyhistidine-tagged, …); assay: FPLC affinity chromatography, NaCl gradient then acid
[12] = target: T1, Hdm2 140-350 (polyhistidine-tagged, …); assay: FPLC affinity chromatography, ARF polypeptide coupled to Sepharose, NaCl gradient then acid
[13] = target: T6, Mdm2 (Murine Double Minute 2, full-length) (mouse, UniProt P23804 1-489); assay: His-tagged syn-ARF N37 mixed with Mdm2 from Sf9 cells, immunoprecipitation with 2A10 or anti-polyhistidine and blot
T6 construct: Full-length protein made in Sf9 cells from a baculovirus, or endogenous in NIH-3T3 cells; GenBank X58876 printed; also called wild type Mdm2; full-length Mdm2
T6 sequence (P23804 other isoform, or with tags, fused parts or gaps limits assumed): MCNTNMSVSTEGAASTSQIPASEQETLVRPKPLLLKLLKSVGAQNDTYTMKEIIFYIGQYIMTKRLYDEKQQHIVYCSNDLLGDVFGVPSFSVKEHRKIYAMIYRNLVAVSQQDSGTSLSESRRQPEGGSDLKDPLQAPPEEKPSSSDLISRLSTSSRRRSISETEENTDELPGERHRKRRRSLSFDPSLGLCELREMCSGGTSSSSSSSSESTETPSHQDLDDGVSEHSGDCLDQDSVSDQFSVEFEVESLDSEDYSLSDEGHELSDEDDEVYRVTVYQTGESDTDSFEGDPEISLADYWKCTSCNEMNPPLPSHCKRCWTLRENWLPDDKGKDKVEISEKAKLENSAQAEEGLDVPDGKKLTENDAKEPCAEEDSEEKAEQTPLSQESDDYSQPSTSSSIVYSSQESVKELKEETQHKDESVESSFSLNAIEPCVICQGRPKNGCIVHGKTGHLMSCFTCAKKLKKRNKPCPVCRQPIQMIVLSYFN

T1 sequence (Q00987 140-350): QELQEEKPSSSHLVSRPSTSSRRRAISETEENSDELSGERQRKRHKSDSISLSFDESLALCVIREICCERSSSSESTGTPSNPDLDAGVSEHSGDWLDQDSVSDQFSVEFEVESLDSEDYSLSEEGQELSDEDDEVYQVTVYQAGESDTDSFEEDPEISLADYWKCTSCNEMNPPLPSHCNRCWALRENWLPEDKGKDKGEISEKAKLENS

B1: mouse p19^ARF Δ1-14/Δ26-37 (HA-tagged double-deletion mutant) (other)
chain: GRPLQERVFLVCALAFVNMLLRLERILRRGPHRNPGPGDDDGQRSRSSSSAQLRCRFELRGPHYLLPPGARRSAGRLPGHAGGAARVRGSAGCARCLGSPAARLGPRAGTSRHRAIFAFRWVLFVFRWVVFVYRWERRPDRRA
notes: also called ARF Δ1-14/26-37; not shown: N-terminal HA tag
binding result [1]: no binding

B2: ARF-p19 (mouse, full-length 169 amino acid protein) (other)
chain: MGRRFLVTVRIQRAGRPLQERVFLVKFVRSRRPRTASCALAFVNMLLRLERILRRGPHRNPGPGDDDGQRSRSSSSAQLRCRFELRGPHYLLPPGARRSAGRLPGHAGGAARVRGSAGCARCLGSPAARLGPRAGTSRHRAIFAFRWVLFVFRWVVFVYRWERRPDRRA
notes: also called p19^ARF; p19^ARF protein
binding result [2]: no binding | binding result [3]: no binding | binding result (CDK6 (mouse, endogenous)): no binding | binding result [4]: no binding | binding result (CDK4 (mouse, endogenous) [5]): no binding | binding result (CDC2 (mouse, endogenous)): no binding | binding result [6]: binds

B3: mouse p19^ARF Δ1-14 (HA-tagged deletion mutant) (other)
chain: GRPLQERVFLVKFVRSRRPRTASCALAFVNMLLRLERILRRGPHRNPGPGDDDGQRSRSSSSAQLRCRFELRGPHYLLPPGARRSAGRLPGHAGGAARVRGSAGCARCLGSPAARLGPRAGTSRHRAIFAFRWVLFVFRWVVFVYRWERRPDRRA
notes: also called p19^ARF mutant lacking amino acid residues 1-14; not shown: N-terminal HA tag of the HA-tagged ARF cDNA template
binding result [1]: binds

B4: InK4a-p16 (mouse) (other, UniProt P51480 1-168, looked up)
chain: MESAADRLARAAAQGRVHDVRALLEAGVSPNAPNSFGRTPIQVMMMGNVHVAALLLNYGADSNCEDPTTFSRPVHDAAREGFLDTLVVLHGSGARLDVRDAWGRLPLDLAQERGHQDIVRYLRSAGCSLCSAGWSLCTAGNVAQTDGHSFSSSTPRALELRGQSQEQS
notes: not used; also called p16^INK4a
binding result (CDK4 (mouse, endogenous) [7]): binds

B5: mouse p19^ARF Δ15-25 (HA-tagged deletion mutant) (other)
chain: MGRRFLVTVRIQRAKFVRSRRPRTASCALAFVNMLLRLERILRRGPHRNPGPGDDDGQRSRSSSSAQLRCRFELRGPHYLLPPGARRSAGRLPGHAGGAARVRGSAGCARCLGSPAARLGPRAGTSRHRAIFAFRWVLFVFRWVVFVYRWERRPDRRA
notes: not shown: N-terminal HA tag of the HA-tagged ARF cDNA template
binding result [1]: binds

B6: mouse p19^ARF Δ26-37 (HA-tagged deletion mutant) (other)
chain: MGRRFLVTVRIQRAGRPLQERVFLVCALAFVNMLLRLERILRRGPHRNPGPGDDDGQRSRSSSSAQLRCRFELRGPHYLLPPGARRSAGRLPGHAGGAARVRGSAGCARCLGSPAARLGPRAGTSRHRAIFAFRWVLFVFRWVVFVYRWERRPDRRA
notes: also called HA-ARF Δ26-37; not shown: N-terminal HA tag
binding result [1]: binds

B7: syn-ARF N64 (polyhistidine-tagged mouse ARF residues 1-64, made in bacteria) (other)
chain: MGRRFLVTVRIQRAGRPLQERVFLVKFVRSRRPRTASCALAFVNMLLRLERILRRGPHRNPGPG
notes: also called minigene-encoded N64 polypeptide; not shown: N-terminal polyhistidine tag of pET28a
binding result [8]: binds

B8: mouse ARF synthetic peptide 15-25 (peptide)
peptide: GRPLQERVFLV
notes: Coupled to Sepharose; also called ARF 15-25
binding result [9]: no binding | binding result [10]: no binding

B9: ARF N62 (mouse p19^ARF N-terminal 62 amino acids, HA-tagged) (other, not shown: small tags and cut ends)
chain: MGRRFLVTVRIQRAGRPLQERVFLVKFVRSRRPRTASCALAFVNMLLRLERILRRGPHRNPG
notes: Produced in Sf9 cells; also called HA-tagged N62; ARF N62 mutant
binding result [8]: binds

B10: syn-ARF N37 (polyhistidine-tagged mouse ARF residues 1-37, made in bacteria) (peptide)
chain: MGRRFLVTVRIQRAGRPLQERVFLVKFVRSRRPRTAS
notes: also called Synthetic ARF N37; recombinant syn-ARF N37; not shown: N-terminal polyhistidine tag of pET28a
binding result [11]: binds | binding result [12]: binds | binding result [13]: binds
